Test results: the nanobody polyreactivity screen of Harvey et al. (2022)

Assay: yeast display, Sf9 membrane polyspecificity reagent, FACS + sequencing; frameworks hold sequencing errors
Summary of the method: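 In a synthetic yeast display library (Saccharomyces cerevisiae BJ5465), nanobody expression was induced with galactose for 36–48 hours. FACS gates were set low and high (top ~1%) using anti-HA fluorescence for expression and streptavidin fluorescence for binding of the Sf9 membrane reagent. Each polyreactivity label is drawn from the gate of origin.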

Sequence: QVQLVESGGGLVQAGGSLRLSCAASGITFNPNAMGWYRQAPGKERELVAVITYRGGSTYYADSVKGRFTISRDNAKNTVYLQMNSLKPEDTAVYYCAAQYIGWHLYWYDYWGQGTQVTVSS
- polyreactivity (PSR sort gate): low polyreactivity

Sequence: QVQLVESGGGLVQAGGSLRLSCAASGGTFRANAMVWYRQAPGKERELVAAISFRGGTTYYADSVKGRFTISRDNAKTTVYLQMNSLKPEDTAVYYCAAGRRGSYYYWGQGTQVTVSS
- polyreactivity (PSR sort gate): high polyreactivity

Sequence: QVQLVESGGGLVQAGGSLRLSCAASGSTFKRYAMGWYRQAPGKERELVADISRGVRTYYADSVKGRFTISRDNAKNTVYLQMNSLKPEDTAVYYCATKYHRNTYEYEYWGQGTQVTVSS
- polyreactivity (PSR sort gate): high polyreactivity

Sequence: QVHLVESGGGLVQAGGSLRLSCAASGNIIDSNAMGWYRHAPGKERELVAAITWSGGSTYYADSVKGRFTISRDNAKTTVYLPMNSLKPADTAVYYCAAYAQKRYYWGQGTQVTVSS
- polyreactivity (PSR sort gate): high polyreactivity

Sequence: QVQLLESGGGLVQAGGSLRLSCMASGSILGDRMSWYRQAPGKEHELVATIYDGGITCYADSMKGRFTISRDNAKNTVYLQMNSLRPEDTAVYYCGASFEGYRYHVYCGQGTQVTVSS
- polyreactivity (PSR sort gate): low polyreactivity

Sequence: QVQLVESGGGLVQAGGSLRLSCAASGRTFKRYAMGWYRQAPGKERELVAAIRQRGGSTYYADSVMGRFTISRDNAKNTVYLQMNSLKPEDTAVYYCAAVIPRPYSVGFDYWGQGTQVTVSS
- polyreactivity (PSR sort gate): high polyreactivity

Sequence: QVQLEESGGGLVQAGGSLRISCAASGLIFRTNAIGWYRQAPGKERELVAAISWSTGSTYYADSVKGRFTISRDNAKNTVYLQMNSLKPEDTAVYYCARTLRWTYRYGYWGQGTQVTVSS
- polyreactivity (PSR sort gate): high polyreactivity

Sequence: QVQLVESGGGLVQAGGSLRLSSAATGGIFYSNAMGWYRQAPGKERELVAAITRSGTSTYYADSVKGRFTISRDNAKNTVYLQMNSLKPEDTAVYYCAADYRYRRSRGHVSKLYYWGQGTQGTVSS
- polyreactivity (PSR sort gate): low polyreactivity

Sequence: QVQLVESGGGLVQAGGSLRLSCAASGRTFRYYTMGWYRPAPGKEREFVAAISSTGGTYYADSVKGRFTISRDNAKNTVYLQMNSLKPEDTAVYYCAATFIQVVVNVQLYDYDYWGQGTQVTVSS
- polyreactivity (PSR sort gate): low polyreactivity

Sequence: QVQLVESGGGLVQAGGSLRLSCAASGRTIWTYVMGWYRQAPGKERELVAAISRSGSSTYYADSVKGRFTISRDNAKNTVYLQMNSLKPEDTAVYYCNKVDGTTLDDHYMDYWGQGTQVTVSS
- polyreactivity (PSR sort gate): low polyreactivity

Sequence: QVQLVESGGGLVQAGGSLRLSCAASGLTFPQYVMGWYRQAPGKERELVASISRSGGNTYYADSVKGRFTISRDNAKNTVYLQMNSLKPEDTAVYYCAAEYIFHYYDIFDYWGQGTQVTVSS
- polyreactivity (PSR sort gate): high polyreactivity

Sequence: QVHLVESGGGLVQAGGSLRLSCAPSGRIFFPYAMGWYRQAPGKEREFVAAIRRSGGSTYYADSVKGRFTISRDNAKNTVYLQMNSLKPEDTAVYYCNAPLKRYGYYKYGYWGQGTQVTVSS
- polyreactivity (PSR sort gate): high polyreactivity

Sequence: QVQLVESGGGLVQAGGSLRLSCAASGSIFGQYAMGWYRQAPGKERELVAAITWDGTSTYYADSVKGRFTISRDNAKNTVYLQMNSLKPEDTAVYYCAADFYPYSWEEVDYWGQGTQVTVSS
- polyreactivity (PSR sort gate): low polyreactivity

Sequence: QVQHVESGGGLVQAGGSLRLSCAASGSIFWYYAMGWYRKAPVKERELVAAITSSGGRTYYADSVKGRFTISRDNAKNTVYLQMNSLKQEDTAVYYCAARQWWRYDYWGQGTQVTVSS
- polyreactivity (PSR sort gate): high polyreactivity

Sequence: QVQLVESWAGLVQAGGSLRLSCAASGRTFAYNAMGGYRQAPGSERELVAAITWSGDSTYYADSVKGRFTISRDNAKKTVYLQMNSQKPEDTAVNYCAAGLVFHYYAPKSYYLGYDYWGQGTQVTVSS
- polyreactivity (PSR sort gate): low polyreactivity

Sequence: QVQLVESGGGLVQAGGSLRLSCAASGSTINIYAMGWYRQAPGKERELVAAISGRGGSTYYADSVKGRFTISRDNAKNTVYLQMNSLKPEDTAVYYSAASGYKVGSYRARMYYWGQGTQVTVSS
- polyreactivity (PSR sort gate): high polyreactivity

Sequence: QVQLVESGGGLVQAGGSLRLSCAASGRIFTFYAMGWYRQAPGKERELVARISKRGGSTYYADSVKGRFTISRDYAKNTVYLQRNSLKPEDTAVYYCAKAYDPTTYDYWGQGTQVTVSS
- polyreactivity (PSR sort gate): high polyreactivity

Sequence: QVQLVESGGGLVQAGGSLRLSCADSGFTFDWYAMGWYRQAPGKERELVAAISGRGGSTYYADSVKGRFTISRDNAKNTVYLQMNSLKPEDTAVYDCNAVYGAYRYEYWGQGTQVTVSS
- polyreactivity (PSR sort gate): high polyreactivity

Sequence: QVQLVESGGGLVQAGGSLRLSCAASGFIFYLYTMGWYRQAPGKERELVAAIDYSGASTNYADSVKGRFTISRDNAKNTVYVQRNSQKPEDTAVYYCAVNPEVLYHSWTLDYWGQGTQVTVSS
- polyreactivity (PSR sort gate): low polyreactivity

Sequence: QVQLVESGGGLVQAGGSLRLSCAASGIIFRLYAMGWYRQAPGTERELVAAISRRGDSTYYADSVKGRFTISRDNAKNTGYVQMNSLKPEDTAVYYCAAVYVPYYWLGRSRGLDYWGQGTQVSVSS
- polyreactivity (PSR sort gate): high polyreactivity

Sequence: QVQLVESGGGLVQAGGSLRLSCAASRSTFYRYTMGWYIQAPGKERELVADITGSGGRTYYADSVKGRFTISRDNAKNTVYLQMNSLIPEDTAVYYCNAAYVWYRARAGSEDYWGQGTQVTVSS
- polyreactivity (PSR sort gate): high polyreactivity

Sequence: QVQLVESGRGLVQAGGSLRLSCAASARTFPIYAMGCYRQAPWKEREFVAAITYSGGSTYYADSVKGRFTISRDNAKNTVYLQMNSLKPEDTAVYYCAVDGTKPYWHQRYDYSGQGTQVTVSS
- polyreactivity (PSR sort gate): low polyreactivity

Sequence: QVQLVESGGGLVQAGGILRLSCAASARIFTYKAMGWYRQAPGKERELVAAITNGGSTYYADSVKGRFTISRDNAKNTVYLQMNSMKPEDTAVYYCNRVVYRPRYRYGYWGQGTQVTVSS
- polyreactivity (PSR sort gate): high polyreactivity

Sequence: QVQLVESGGGLVQAGGILRLSCAASGSIFWYYARGWYRQARGKEREFVADITFSGGSTYYADSVNGRFTISRDNAKNTVYIQMNSLKPEDTAVYYCARDREPLTPVLGNYWGQGTQVTVSS
- polyreactivity (PSR sort gate): low polyreactivity

Sequence: QVQLVESGGGLVQAGGSLRLSCAASGSIFSVNAMGWYRQAPGKERELVASINFRGGRTYYADSVKGRFTISRDNAKNTVYLQMNSLKPEDTAVYYCAAVISQTDTGYGPSFRVYYWGQGTQVTVSS
- polyreactivity (PSR sort gate): high polyreactivity

Sequence: QVQLVESGGGLVQAGGSLRLSCAASGFIIYRYAMGWYRQAPGKEREVVATISSRGGSTYYADSVKGRFTISRDNAKNTVYLQMNSLKPEDTAVYYCNVRTRVKTTQSYDRNNYYWGQGTQVTVSS
- polyreactivity (PSR sort gate): high polyreactivity

Sequence: QVQLVESGGGLVQAGGSLRLSCAASGRTFRANAMGWYRQAPGKERELVAAISQRGGNTYYADSVKGRFTISRDKAKNTVYIQMNSLKPEDTAVYYCAADITTYRRGRYEYEYWGQGTQVTVSS
- polyreactivity (PSR sort gate): high polyreactivity

Sequence: QVQLVESGGGLVQAGGSLRLSCAASGSTFTRNAMGWYRQAPGKERELVATISSGGSTNYADSVKGRFTISRDNAKNTVYLQMNSLKPEDTAVYYCDKRSLYRYYYWGQGTQVTVSS
- polyreactivity (PSR sort gate): high polyreactivity

Sequence: QVQLVESGGGLVQAGGSLRLSCASSGSTFYRYAMGWYRQAPGKERELVARINTGGSTSYAYSVKGRFTISRDNAKNTVYLQKNSLKPVDTAVYYCAASSRYAVFGRYYYWGQGTQVTVSS
- polyreactivity (PSR sort gate): high polyreactivity

Sequence: QVQLVDSGGGLVQAGGSLRLSCAASGNTFVTYTMGWYRQAPGKERELVADISSGGSTYYADSVKGRFTISRDNAKNTVYLQMYSLKPEDTAVYYCAVLQAVFRSYYIYHRYYWGQGTKVTVSS
- polyreactivity (PSR sort gate): high polyreactivity

Sequence: QVQLVESGGGLVQAGGSLRLSCAASGITFRGYAMGWYRQAPGKERELVAAITGSGTSTYADSVKGRFTISRGNAKNTVYLQMNSLKPEDTAVYYCAADTYDPFYYGYGYWGQGTQVTVSS
- polyreactivity (PSR sort gate): low polyreactivity

Sequence: QVQLVESGGGLVQAGGSLRLSCAASGSTFYLYAMGWYRQAPGKEREFVARISASGGNTYYADSVKGRFTISRDNAKNTVYLQMNSLKPEDTAVYYCATRGSRYPYVAYNYWGQGTQVTVSS
- polyreactivity (PSR sort gate): high polyreactivity

Sequence: QVQIVESGGGLVQAGGILRLSCAASGSTFSFNAMGWYRQAPGKERELVAAITGGDGTIYADSVKGRFTISRDNAKNTVYLQMNSLKPEVTAVYYCAADQWGSTEDYWFTYGYWGQGTQVTVSS
- polyreactivity (PSR sort gate): low polyreactivity

Sequence: QDQLVESGGGLLQAGGSLRLSCASSGSIFANYVMGWYRQAPGKEREYFAGISRSGGSTYYADSVKGRFKISRDNAKNTVYLQMTSLKPEDTAVYYCNAGAGQRVSGHSFEYWGQGTQVTVSS
- polyreactivity (PSR sort gate): high polyreactivity

Sequence: QVQLVESVGGLVQAGGSLRLSSDASGRTFYSNAMGWYREAPGKERELVAGMNIGGGSTYYADSVKGRFTISRDNAKNTVYLQMYSLIPEATAVYYCAALRWGAYRHGYWGQGTQVTVSW
- polyreactivity (PSR sort gate): high polyreactivity

Sequence: QVQLVESGGGLVQAGGSLRLSCAASGYIVYFNAMGWYRQAPGKERELVASIDSGGSTNYADSVKGRFTISRDNAKNTVYLQMNSLKPADTAVYYCAADKLYQPGIGDDYWGQGTQVTVSS
- polyreactivity (PSR sort gate): low polyreactivity

Sequence: QVQLVESGGGLVQAGGSLRLSCAASGRTFRWNAMGLYRQAPGKERELVADITSGGSTYYADSVKGRFTISSDNAKNTVYLQMNSLKPEDTAVYYCKAYYYYQFPAPASKYDYWGQGTQVTVSS
- polyreactivity (PSR sort gate): high polyreactivity

Sequence: QVQLVESGGGLVQAGGSLRLSCAASGSTFVRYAMGWYRQAPGKDRELVARISSAGSTNYADSVKGRFTISRDNAKNTVYLQMNSLKPEDTAVYYCAATTKAGVSSGQGDSWGQGTQVTVSS
- polyreactivity (PSR sort gate): low polyreactivity

Sequence: QVQLVESGGGLVQAGGSLRLSCAASGSTFYPNAMGWYRQAPGKERELVAAITSAGSTYYADSVKGRFTISRDNAKNTVYLQMNSLKPEDTAVYYCAKRRASRYYWGQGTQVTVSS
- polyreactivity (PSR sort gate): high polyreactivity

Sequence: QVQLVESGRGLFQAGGSLRLSCAASGRIFRYYAMGWSRQATGKERELVAAISGSGGSTYYAASVKGRFTISGDNAKNTVYLLMNSLKPEDNAVYYCNALYRIASGEGDLWGQGTQVTVSS
- polyreactivity (PSR sort gate): low polyreactivity

Sequence: QVQLVESGGGLVQAGGSLRLSCAASGSTFTLNAMVWYRQAPGKERELVADISWSSGRTYYADSVKGRFTISRDNAKNTVYLQMNSLKPEVSAVYYCATYDFWKVKFYAYYPEFDYWGQGTQVTVSS
- polyreactivity (PSR sort gate): low polyreactivity

Sequence: QVQLVESGGGLVQAGGSLRLSCAASGITFVANAMGWYRQAPGKERELVAGITQTGGSTYYADSVKGRFTISRDNAKNTVYLQMNSLKPEDTAVYYCAATYRRLRYGKLLYYWGQGTQVTVSS
- polyreactivity (PSR sort gate): high polyreactivity

Sequence: QVQLVESGGGLVQAGGSLRLICAASGRTFGKYAMGWYRQAPGKEMQLVAAITRRGGSTFYADSVKGRFRISRDNAKNTVYLQMNSLKPEDTAVYYCAARSTVGPQYGVRFNYWGQGTQVTVSS
- polyreactivity (PSR sort gate): high polyreactivity
